B1: ZBTB22 (parent)
chain: FSSSSQEAFAASAVGSGERRGGGP

Variants of: B1
Test: protein stability index of a GFP-peptide fusion (GPS, HEK-293T) (PSI 1-6); higher = more stable
Conditions: c terminus: a fixed tail appended
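Also: lentivirally expressed fusions sorted by FACS into six bins by GFP to DsRed ratio, PSI derived from sequencing read proportions per bin multiplied by bin number.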

Variant	protein stability index
FSSSSQEAFAASAVGSGERRSGGP	3.85
FSSSSQEAFAASAVGSGERRDGGP	4.06
FSSSSQEAFAASAVGSGERRVGGP	2.84
FSSSSQEAFAASAVGSGERRFGGP	3.22
FSSSSQEAFAASAVGSGERRRGGP	3.35
FSSSSQEAFAASAVGSGERRNGGP	3.45
FSSSSQEAFAASAVGSGERRMGGP	3.4
FSSSSQEAFAASAVGSGERRIGGP	3.48
FSSSSQEAFAASAVGSGERRKGGP	2.69
FSSSSQEAFAASAVGSGERRQGGP	3.73
FSSSSQEAFAASAVGSGERRLGGP	3.05
FSSSSQEAFAASAVGSGERRAGGP	3.64
FSSSSQEAFAASAVGSGERRPGGP	3.69
FSSSSQEAFAASAVGSGERREGGP	3.68
FSSSSQEAFAASAVGSGERRHGGP	3.03
FSSSSQEAFAASAVGSGERRYGGP	3.22
FSSSSQEAFAASAVGSGERRTGGP	2.94
FSSSSQEAFAASAVGSGERRWGGP	2.31
FSSSSQEAFAASAVGSGERRCGGP	3.48
FSSSSQEAFAASAVGSGVRRGGGP	2.49
FSSSSQEAFAASAVGSGPRRGGGP	2.97
FSSSSQEAFAASAVGSGLRRGGGP	2.85
FSSSSQEAFAASAVGSGSRRGGGP	2.28
FSSSSQEAFAASAVGSGNRRGGGP	2.55

Variant	protein stability index
FSSSSQEAFAASAVGSGCRRGGGP	2.96
FSSSSQEAFAASAVGSGIRRGGGP	2.36
FSSSSQEAFAASAVGSGHRRGGGP	3.65
FSSSSQEAFAASAVGSGKRRGGGP	3.31
FSSSSQEAFAASAVGSGWRRGGGP	2.92
FSSSSQEAFAASAVGSGFRRGGGP	2.86
FSSSSQEAFAASAVGSGTRRGGGP	2.87
FSSSSQEAFAASAVGSGQRRGGGP	3.24
FSSSSQEAFAASAVGSGMRRGGGP	2.96
FSSSSQEAFAASAVGSGARRGGGP	3.48
FSSSSQEAFAASAVGSGYRRGGGP	2.69
FSSSSQEAFAASAVGSGDRRGGGP	2.98
FSSSSQEAFAASAVGSGGRRGGGP	3.84
FSSSSQEAFAASAVGSVERRGGGP	3.48
FSSSSQEAFAASAVGSSERRGGGP	3.39
FSSSSQEAFAASAVGSEERRGGGP	3.52
FSSSSQEAFAASAVGSHERRGGGP	3.62
FSSSSQEAFAASAVGSAERRGGGP	3.02
FSSSSQEAFAASAVGSPERRGGGP	3.22
FSSSSQEAFAASAVGSTERRGGGP	3.08
FSSSSQEAFAASAVGSDERRGGGP	3.88
FSSSSQEAFAASAVGSCERRGGGP	4.17
FSSSSQEAFAASAVGSLERRGGGP	3.12
FSSSSQEAFAASAVGSRERRGGGP	3.23

Variant	protein stability index
FSSSSQEAFAASAVGSIERRGGGP	2.74
FSSSSQEAFAASAVGSYERRGGGP	3.45
FSSSSQEAFAASAVGSFERRGGGP	3.18
FSSSSQEAFAASAVGSNERRGGGP	3.28
FSSSSQEAFAASAVGSWERRGGGP	2.85
FSSSSQEAFAASAVGSMERRGGGP	3.35
FSSSSQEAFAASAVGSKERRGGGP	2.63
FSSSSQEAFAASAVGSQERRGGGP	3.31
FSSSSQEAFAASAYGSGERRGGGP	2.76
FSSSSQEAFAASAVGSGERRGGQP	3.26
FSSSSQEAFAASAVGSGERRGGMP	2.91
FSSSSQEAFAASAVGSGERRGGIP	2.74
FSSSSQEAFAASAVGSGERRGGLP	2.94
FSSSSQEAFAASAVGSGERRGGCP	3.46
FSSSSQEAFAASAVGSGERRGGYP	2.87
FSSSSQEAFAASAVGSGERRGGVP	3.03
FSSSSQEAFAASAVGSGERRGGEP	3.53
FSSSSQEAFAASAVGSGERRGGKP	4.06
FSSSSQEAFAASAVGSGERRGGNP	3.4
FSSSSQEAFAASAVGSGERRGGSP	3.25
FSSSSQEAFAASAVGSGERRGGPP	3.54
FSSSSQEAFAASAVGSGERRGGDP	4.21
FSSSSQEAFAASAVGSGERRGGWP	1.43
FSSSSQEAFAASAVGSGERRGGHP	3.39

Variant	protein stability index
FSSSSQEAFAASAVGSGERRGGRP	3.48
FSSSSQEAFAASAVGSGERRGGFP	3.75
FSSSSQEAFAASAVGSGERRGGTP	3.27
FSSSSQEAFAASAVGSGERRGGAP	3.57
FSSSSQEAFAASAVGSGERRGLGP	3.65
FSSSSQEAFAASAVGSGERRGSGP	3.33
FSSSSQEAFAASAVGSGERRGIGP	3.3
FSSSSQEAFAASAVGSGERRGNGP	3.55
FSSSSQEAFAASAVGSGERRGHGP	3.83
FSSSSQEAFAASAVGSGERRGDGP	3.11
FSSSSQEAFAASAVGSGERRGPGP	3.7
FSSSSQEAFAASAVGSGERRGRGP	3.25
FSSSSQEAFAASAVGSGERRGWGP	2.19
FSSSSQEAFAASAVGSGERRGYGP	2.57
FSSSSQEAFAASAVGSGERRGAGP	3.6
FSSSSQEAFAASAVGSGERRGKGP	2.15
FSSSSQEAFAASAVGSGERRGTGP	3.72
FSSSSQEAFAASAVGSGERRGVGP	3.33
FSSSSQEAFAASAVGSGERRGFGP	2.96
FSSSSQEAFAASAVGSGERRGEGP	3.66
FSSSSQEAFAASAVGSGERRGQGP	3.83
FSSSSQEAFAASAVGSGERRGMGP	2.44

— the supplement of paper PMC10567573
